# Laboratory results: patent US20230190943A1, “ALGINIC ACID DERIVATIVE BONDED TO NONSTEROIDAL ANTI-INFLAMMATORY COMPOUND” (MOCHIDA PHARMACEUTICAL CO., LTD., priority 2018, published 2023)
# Experiments:
# [1] = Release test of free diclofenac, felbinac, ketoprofen or naproxen in sodium phosphate buffer (Example 23); type: physicochemical
# Method: (§1) (set temperature of air conditioner). After confirming that no gel was formed, this solution was dispensed. Immediately after the dissolution, the amount of free diclofenac present in each solution was measured by LC-MS/MS as an initial state (day 0 of storage). Also, the other dispensed solutions were incubated at 37° C. for 1, 3, and 7 days, and then the amount of free diclofenac was measured. […] The MS conditions are as follows. • Ionization mode: ESI-negative • Ion source temperature: 300 degrees • Capillary voltage: -4000 V
# [2] = Release test of free diclofenac from conjugates in 20 mM sodium phosphate buffer, 37°C (Example 11); type: physicochemical; settings: for Release Rate in Release Test at pH 5.3: pH 5.3, 37°C; for Release Rate in Release Test at pH 5.3 / Release Rate in Release Test at pH 7.0: free diclofenac; for Release Rate in Release Test at pH 7.0: pH 7.0, 37°C
# Method: as §1
# [3] = pH 5.3, day 1, free drug (diclofenac, felbinac, ketoprofen or naproxen)
# [4] = pH 5.3, day 3, free drug (diclofenac, felbinac, ketoprofen or naproxen)
# [5] = pH 5.3, day 7, free drug (diclofenac, felbinac, ketoprofen or naproxen)
# [6] = pH 7.0, day 1, free drug (diclofenac, felbinac, ketoprofen or naproxen)
# [7] = pH 7.0, day 3, free drug (diclofenac, felbinac, ketoprofen or naproxen)
# [8] = pH 7.0, day 7, free drug (diclofenac, felbinac, ketoprofen or naproxen)
Substance,"Release Rate in Release Test at pH 5.3 [1, 3] [%]","Release Rate in Release Test at pH 5.3 [1, 4] [%]","Release Rate in Release Test at pH 5.3 [1, 5] [%]","Release Rate in Release Test at pH 7.0 [1, 6] [%]","Release Rate in Release Test at pH 7.0 [1, 7] [%]","Release Rate in Release Test at pH 7.0 [1, 8] [%]","Release Rate in Release Test at pH 5.3 ([2]; Day 1, 0.1% w/w conjugate) [%]","Release Rate in Release Test at pH 5.3 ([2]; Day 3, 0.1% w/w conjugate) [%]","Release Rate in Release Test at pH 5.3 ([2]; Day 7, 0.1% w/w conjugate) [%]","Release Rate in Release Test at pH 7.0 ([2]; Day 1, 0.1% w/w conjugate) [%]","Release Rate in Release Test at pH 7.0 ([2]; Day 3, 0.1% w/w conjugate) [%]","Release Rate in Release Test at pH 7.0 ([2]; Day 7, 0.1% w/w conjugate) [%]",Release behaviour in the release test at pH 7.0 (in words) [2]
Diclofenac-(2-Amino-1-(4-(Hydroxymethyl)Piperidin-1-Yl)Ethan-1-One)-Alginic Acid Derivative [Compound 58],0.0,0.2,0.3,0.3,1.3,3.1,–,–,–,–,–,–,–
Diclofenac-(2-Amino-1-(4-Hydroxypiperidin-1-Yl)Ethan-1-One)-Alginic Acid Derivative [Compound 63b],0.1,0.1,0.2,0.7,1.9,2.5,–,–,–,–,–,–,–
Diclofenac-(2-Amino-N-(1-Hydroxypropan-2-Yl)Acetamide)-Alginic Acid Derivative [Compound 80a],0.2,0.4,0.6,0.8,2.4,5.3,–,–,–,–,–,–,–
Diclofenac-(2-Amino-N-(1-Hydroxypropan-2-Yl)Acetamide)-Alginic Acid Derivative [Compound 80b],0.2,0.3,0.7,0.7,2.3,5.6,–,–,–,–,–,–,–
Diclofenac-(2-Amino-N-(2-Hydroxyethyl)Acetamide)-Alginic Acid Derivative [Compound 53a],0.1,0.4,0.8,0.9,3.7,10.0,–,–,–,–,–,–,–
Diclofenac-(2-Amino-N-(2-Hydroxyethyl)Acetamide)-Alginic Acid Derivative [Compound 53c],0.5,0.9,1.0,0.9,2.5,7.4,–,–,–,–,–,–,–
Diclofenac-(2-Amino-N-(2-Hydroxyethyl)Acetamide)-Alginic Acid Derivative [Compound 53d],0.1,0.5,0.6,0.7,3.0,9.3,–,–,–,–,–,–,–
Diclofenac-(2-Amino-N-(2-Hydroxypropyl)Acetamide)-Alginic Acid Derivative [Compound 72a],0.0,0.1,0.2,0.3,1.0,2.2,–,–,–,–,–,–,–
Diclofenac-(2-Amino-N-(2-Hydroxypropyl)Acetamide)-Alginic Acid Derivative [Compound 72b],0.0,0.1,0.2,0.4,1.5,3.7,–,–,–,–,–,–,–
Diclofenac-(2-Amino-N-(3-Hydroxypropyl)Acetamide)-Alginic Acid Derivative [Compound 76a],0.1,0.2,0.4,0.5,1.3,3.5,–,–,–,–,–,–,–
Diclofenac-(2-Amino-N-(3-Hydroxypropyl)Acetamide)-Alginic Acid Derivative [Compound 76b],0.3,0.5,0.6,0.4,1.4,3.6,–,–,–,–,–,–,–
Diclofenac-(2-Amino-N-(6-Hydroxyhexyl)Acetamide)-Alginic Acid Derivative [Compound 68],0.0,0.2,0.3,0.3,0.9,2.1,–,–,–,–,–,–,–
Diclofenac-(2-Aminoethanol)-Alginic Acid Derivative [Compound 5a],–,–,–,–,–,–,0.0,0.1,0.2,0.2,2.3,4.1,–
Diclofenac-(2-Aminoethanol)-Alginic Acid Derivative [Compound 5b],–,–,–,–,–,–,0.0,0.0,0.3,0.1,2.1,5.0,stably released
Diclofenac-(2-Aminoethanol)-Alginic Acid Derivative [Compound 5c],–,–,–,–,–,–,0.0,0.1,0.4,0.3,2.5,5.5,stably released
Diclofenac-(2-Aminoethanol)-Alginic Acid Derivative [Compound 5d],–,–,–,–,–,–,0.0,0.1,0.4,0.2,2.4,5.1,stably released
Diclofenac-(2-Aminoethoxyethanol)-Alginic Acid Derivative [Compound 14],–,–,–,–,–,–,0.0,0.0,0.0,0.0,0.0,0.0,–
Diclofenac-(2-Aminoethoxyethanol)-Alginic Acid Derivative [Compound 14a],0.1,0.2,0.4,0.6,1.9,4.2,–,–,–,–,–,–,–
Diclofenac-(2-Aminoethoxyethanol)-Alginic Acid Derivative [Compound 14b],0.1,0.2,0.5,–,–,–,–,–,–,–,–,–,–
"Diclofenac-(3-Amino-2,2-Difluoropropan-1-Ol)-Alginic Acid Derivative [Compound 36]",–,–,–,–,–,–,0.0,0.5,1.0,1.2,8.8,12.9,–
Diclofenac-((4-(Aminomethyl)Phenyl)Methanol)-Alginic Acid Derivative [Compound 28],–,–,–,–,–,–,0.0,0.1,0.3,0.1,1.2,4.0,–
Diclofenac-(N-(Aminoethyl)-2-Hydroxyacetamide)-Alginic Acid Derivative [Compound 42],–,–,–,–,–,–,0.0,0.5,3.3,1.8,10.2,21.0,stably released
Diclofenac-(N-(Aminoethyl)-2-Hydroxypropanamide)-Alginic Acid Derivative [Compound 47],–,–,–,–,–,–,0.0,0.1,0.7,0.8,6.1,10.9,stably released
Felbinac-(2-Amino-N-(2-Hydroxyethyl)Acetamide)-Alginic Acid Derivative [Compound 84],0.2,0.3,0.5,0.9,3.3,7.3,–,–,–,–,–,–,–
